# Data reported in patent US20180258175A1 (ABLEXIS, published 2018).
# Residue numbers refer to the chain shown, from its start.
# B1: CCK-514A (antibody, V domains shown)
# VH: EVQLVESGGGLVKPGGSLRLSCAASGFTFSSYSMNWVRQAPGKGLEWVSSISSSSSYIYYADSVKGRFTISRDNAKNSLYLQMNSLRAEDTAVYYCARGGSYPYNWFDPWGQGTLVTVSS
# VL: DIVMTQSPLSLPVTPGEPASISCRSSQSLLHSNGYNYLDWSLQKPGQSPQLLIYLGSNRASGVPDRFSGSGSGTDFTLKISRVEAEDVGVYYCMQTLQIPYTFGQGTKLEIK
# notes: AlivaMab chimeric IgG, human kappa LC
# B2: CCK-464A (antibody, V domains shown)
# VH: EVQLVESGGGLVKPGGSLRLSCAASGFTFSSYNMNWVRQAPGKGLEWVSSISSSSTYIYYADSLKGRFTISRDNAMNSLYLQMSSLRAEDTAVYYCARDSGTYPYYYFGMDVWGQGTTVTVSS
# VL: DIQLTQSPSFLSASVGDRVTITCRASQGISSYLAWYQQKPGKAPKLLIYAASTLQSGVPSRFSGSGSGTEFTLTISSLQPEDFATYYCQQLNTYPRTFGQGTKVEIK
# notes: as for B1
# B3: CCK-525A (antibody, V domains shown)
# VH: QVQLVESGGGVVQPGRSLRLSCAASGFTFSSYGMHWVRQAPGKGLEWVAVIWYDGSIKYYADSVKGRFTISRDNSKNTLYLQMNSLRAEDTAVYYCARATYYYDSSGYYSNWFDPWGQGTLVTVSS
# VL: DIQMTQSPSSVSASVGDRVTITCRASQGISSWLAWYQQKPGKAPKLLIYAASSLQSGVPSRFSGSGSGTDFTLTISSLQPEDFATYYCQQANTFPFTVGPGTKVDIK
# notes: as for B1
# B4: CCK-468A (antibody, V domains shown)
# VH: EVQLVESGGGLVQPGRSLRLSCTASGFTFGDYAMTWFRQAPGKGLEWVGFIRSKAYGGTTEYAASVKGRFTISRDDSKSIAYLQMNSLKTEDTAVYYCTREGSFGALDIWGQGTMVTVSS
# VL: not shown
# notes: as for B1
# B5: 549 (Table 4, bin 1D block) (antibody, V domains shown)
# VH: QVQFVESGGGVVQPGRSLRLSCAASGFTLSSYGMHWVRQAPGKGLEWVAVIWYDGSNEYYADSVKGRFTISRDNSKNTLYLQMNSLRAEDTAVYYCARDRAWGSGDWGQGTLVTVSS
# VL: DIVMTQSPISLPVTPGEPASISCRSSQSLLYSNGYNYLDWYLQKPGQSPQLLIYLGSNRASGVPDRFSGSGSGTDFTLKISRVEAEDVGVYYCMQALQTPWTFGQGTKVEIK
# notes: not tied
# B6: CCK-516A (antibody, V domains shown)
# VH: not shown
# VL: DIVMTQTPLSLPVTPGEPASISCRSSQSLLDSDDGNTYLDWYLQKPGQSPQLLIYTLSYRASGVPDRFSGSGSGTDFTLKISRVEAEDVGVYYCMQRIEFPLTFGGGTKVEIK
# notes: as for B1
# B7: 429 (Table 4, bin 1C block) (antibody, V domains shown)
# VH: QVQLEQSGAEVKRPGASVKVSCKASGYTFTGYYMHWVRQAPGQGLEWMGWINPNRGDTNYAQKFQGRVTMTRDTSISTAYMELSRLRSDDTAVYYCARDLEGGGPFDYWGQGTLVTVSS
# VL: B6 VL with L102S, G106Q, K109R, V110L
# notes: not tied
# Molecular target: T1, human CD115 extracellular domain (Sino Biological 10161-H08H) (human, UniProt P07333 20-517)
# T1 construct: extracellular domain; bought recombinant protein; also called huCD115; hu-CD115
# Experiment: competition ELISA, competitor TMR 24A;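 further: clonal anti-huCD115 hybridoma supernatant antibodies bound with a competitor mouse antibody present, and failure to bind puts a clone in that competitor's epitope bin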
# Method: (§1) A competition ELISA was performed to establish competitive binding bins. […] After 1 hour the wells were washed and incubated with individual clonal anti-huCD115 AlivaMab hybridoma supernatants. […] Individual AlivaMab Mouse antibodies that were unable to bind in the presence of a mouse antibody are considered to be in the same epitope bin as that particular mouse antibody.
# 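Further: low signal means same epitope bin as the mouse competitor antibody.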
row,Binder,signal vs NO COMP=100
1,B1,53%
2,B2,39%
3,B3,13%
4,B4,85%
5,B5,111%
6,B6,39%
7,B7,75%

# Molecular target: T1, human CD115 extracellular domain (Sino …)
# Experiment: competition ELISA, competitor TMR 44B;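 further: binding of antibodies from single-clone hybridoma supernatants to huCD115 measured with the competitor antibody present, a drop in signal meaning both share an epitope bin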
# Method: as §1
row,Binder,signal vs NO COMP=100
1,B1,4%
2,B2,0%
3,B3,56%
4,B4,24%
5,B5,2%
6,B6,10%
7,B7,45%

# Molecular target: T1, human CD115 extracellular domain (Sino …)
# Experiment: competition ELISA, competitor TMR 35A;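 further: clonal hybridoma supernatant antibodies added to wells after the competitor mouse antibody, lost binding signal puts an antibody in that competitor's epitope bin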
# Method: as §1
row,Binder,signal vs NO COMP=100
1,B1,75%
2,B2,85%
3,B3,88%
4,B4,104%
5,B5,89%
6,B6,82%
7,B7,112%

# Molecular target: T1, human CD115 extracellular domain (Sino …)
# Experiment: competition ELISA, competitor TMR 95A;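 further: clonal anti-huCD115 hybridoma supernatants tested for binding while a competitor mouse antibody is present, where failure to bind assigns them to that competitor's epitope bin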
# Method: as §1
row,Binder,signal vs NO COMP=100
1,B1,42%
2,B2,57%
3,B3,11%
4,B4,61%
5,B5,1%
6,B6,20%
7,B7,38%

# Molecular target: T1, human CD115 extracellular domain (Sino …)
# Experiment: competition ELISA, competitor TMR 100A;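 further: clonal anti-huCD115 hybridoma supernatants tested for binding with the competitor antibody present, clones failing to bind are assigned to the competitor's epitope bin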
# Method: as §1
row,Binder,signal vs NO COMP=100
1,B1,103%
2,B2,96%
3,B3,100%
4,B4,95%
5,B5,100%
6,B6,87%
7,B7,107%

# Molecular target: T1, human CD115 extracellular domain (Sino …)
# Experiment: competition ELISA, competitor TMR 20A;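 further: epitope binning by ELISA, anti-huCD115 hybridoma supernatant antibodies tested for binding to huCD115 with the competitor antibody present, loss of binding placing them in the competitor's bin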
# Method: as §1
row,Binder,signal vs NO COMP=100
1,B1,84%
2,B2,87%
3,B3,80%
4,B4,53%
5,B5,59%
6,B6,70%
7,B7,84%
